Experimental data as given in the supplement of paper PMC9112550, “Optimization of the antimicrobial peptide Bac7 by deep mutational scanning” (BMC Biology, 2022).

test system: Escherichia coli TOP10; experiment: shrunken log2 fold change of peptide-encoding DNA abundance (4.5 h post-induction vs induction); higher = less antimicrobial activity (less host growth inhibition); details: time post-induction: 4.5 h; library: site-saturation at positions 5, 18, 19, 20
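Also: peptides expressed intracellularly from a pBAD plasmid library in pooled LB shake-flask culture, induced with 0.3% L-arabinose, DNA abundance read by NGS, three biological replicates, DESeq2 with apeglm shrinkage.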

| Sequence | shrunken log2 fold change |
| --- | --- |
| RRIRQRPPRLPRPRPRPTNPPRP | -0.175 |
| RRIRGRPPRLPRPRPRPTLSPRP | 0.313 |
| RRIRRRPPRLPRPRPRPYICPRP | -0.452 |
| RRIRWRPPRLPRPRPRPSDVPRP | -0.545 |
| RRIRRRPPRLPRPRPRPSMIPRP | -0.114 |
| RRIRLRPPRLPRPRPRPQKLPRP | -0.17 |
| RRIRCRPPRLPRPRPRPNWFPRP | -0.201 |
| RRIRMRPPRLPRPRPRPWTGPRP | -0.217 |
| RRIRPRPPRLPRPRPRPPNYPRP | -0.0609 |
| RRIRQRPPRLPRPRPRPCYMPRP | -0.832 |
| RRIRHRPPRLPRPRPRPIDAPRP | -0.105 |
| RRIRERPPRLPRPRPRPTYHPRP | -0.407 |
| RRIRYRPPRLPRPRPRPKFEPRP | -0.0286 |
| RRIRWRPPRLPRPRPRPVFMPRP | -0.0684 |
| RRIRHRPPRLPRPRPRPEFWPRP | 0.42 |
| RRIRIRPPRLPRPRPRPHQVPRP | -0.614 |
| RRIRVRPPRLPRPRPRPRPWPRP | 0.178 |
| RRIRCRPPRLPRPRPRPFETPRP | -0.0151 |
| RRIRCRPPRLPRPRPRPLIKPRP | -0.311 |
| RRIRGRPPRLPRPRPRPLTNPRP | 0.364 |
| RRIRWRPPRLPRPRPRPVEIPRP | -0.206 |
| RRIRIRPPRLPRPRPRPECEPRP | -0.0311 |
| RRIRYRPPRLPRPRPRPQWDPRP | -0.842 |
| RRIRFRPPRLPRPRPRPGPVPRP | 0.266 |
| RRIRLRPPRLPRPRPRPYCWPRP | -0.37 |

| Sequence | shrunken log2 fold change |
| --- | --- |
| RRIRLRPPRLPRPRPRPEKQPRP | 0.0884 |
| RRIRPRPPRLPRPRPRPHCDPRP | 0.22 |
| RRIRPRPPRLPRPRPRPLTPPRP | 0.222 |
| RRIRYRPPRLPRPRPRPRSQPRP | 0.298 |
| RRIRYRPPRLPRPRPRPVGFPRP | -0.308 |
| RRIRSRPPRLPRPRPRPNMYPRP | -0.635 |
| RRIRSRPPRLPRPRPRPQDWPRP | -0.0642 |
| RRIRCRPPRLPRPRPRPVFDPRP | -0.198 |
| RRIRSRPPRLPRPRPRPMTTPRP | 0.572 |
| RRIRHRPPRLPRPRPRPTWFPRP | 0.17 |
| RRIRRRPPRLPRPRPRPEKFPRP | 0.171 |
| RRIRHRPPRLPRPRPRPHLSPRP | -0.43 |
| RRIRKRPPRLPRPRPRPTLWPRP | 1.19 |
| RRIRYRPPRLPRPRPRPQSAPRP | -0.21 |
| RRIRKRPPRLPRPRPRPILNPRP | -0.158 |
| RRIRERPPRLPRPRPRPIPDPRP | -0.209 |
| RRIRRRPPRLPRPRPRPHPQPRP | 0.268 |
| RRIRWRPPRLPRPRPRPTKDPRP | 0.214 |
| RRIRVRPPRLPRPRPRPRHVPRP | 0.0785 |
| RRIRFRPPRLPRPRPRPGWIPRP | 0.0799 |
| RRIRCRPPRLPRPRPRPMQFPRP | -0.113 |
| RRIRHRPPRLPRPRPRPSWPPRP | -0.00928 |
| RRIRNRPPRLPRPRPRPMPPPRP | 0.208 |
| RRIRHRPPRLPRPRPRPYWWPRP | -0.196 |
| RRIRQRPPRLPRPRPRPCTAPRP | 0.139 |

| Sequence | shrunken log2 fold change |
| --- | --- |
| RRIRFRPPRLPRPRPRPDQQPRP | -0.078 |
| RRIRYRPPRLPRPRPRPCRHPRP | -0.394 |
| RRIRIRPPRLPRPRPRPCGQPRP | -0.279 |
| RRIRQRPPRLPRPRPRPQQYPRP | -0.0402 |
| RRIRDRPPRLPRPRPRPYEIPRP | -0.0176 |
| RRIRKRPPRLPRPRPRPKDKPRP | 0.388 |
| RRIRGRPPRLPRPRPRPSNPPRP | 0.14 |
| RRIRHRPPRLPRPRPRPLMKPRP | -0.581 |
| RRIRGRPPRLPRPRPRPVHVPRP | 0.0798 |
| RRIRFRPPRLPRPRPRPAVEPRP | 0.509 |
| RRIRGRPPRLPRPRPRPVFNPRP | 0.155 |
| RRIRARPPRLPRPRPRPDGNPRP | -0.0344 |
| RRIRIRPPRLPRPRPRPELTPRP | -0.0457 |
| RRIRVRPPRLPRPRPRPWFQPRP | -0.139 |
| RRIRVRPPRLPRPRPRPPWHPRP | 0.164 |
| RRIRGRPPRLPRPRPRPVDQPRP | 0.126 |
| RRIRIRPPRLPRPRPRPGPGPRP | 0.385 |
| RRIRARPPRLPRPRPRPVALPRP | 0.411 |
| RRIRFRPPRLPRPRPRPYAYPRP | -0.0128 |
| RRIRRRPPRLPRPRPRPTMGPRP | 0.0489 |
| RRIRDRPPRLPRPRPRPCNFPRP | -0.0419 |
| RRIRTRPPRLPRPRPRPKPTPRP | 0.0943 |
| RRIRIRPPRLPRPRPRPHDRPRP | -0.289 |
| RRIRTRPPRLPRPRPRPLDPPRP | -0.382 |
| RRIRGRPPRLPRPRPRPVQAPRP | 0.891 |

| Sequence | shrunken log2 fold change |
| --- | --- |
| RRIRTRPPRLPRPRPRPHCDPRP | -0.0828 |
| RRIRCRPPRLPRPRPRPRRWPRP | 0.646 |
| RRIRVRPPRLPRPRPRPKVIPRP | -0.21 |
| RRIRDRPPRLPRPRPRPYSCPRP | 0.0113 |
| RRIRYRPPRLPRPRPRPWCDPRP | -0.733 |
| RRIRRRPPRLPRPRPRPDVSPRP | -0.0463 |
| RRIRYRPPRLPRPRPRPLMFPRP | -1.04 |
| RRIRPRPPRLPRPRPRPDTGPRP | 0.128 |
| RRIRLRPPRLPRPRPRPHYLPRP | -0.278 |
| RRIRWRPPRLPRPRPRPCLLPRP | -0.188 |
| RRIRRRPPRLPRPRPRPDIDPRP | 0.0367 |
| RRIRWRPPRLPRPRPRPRQYPRP | -0.534 |
| RRIRPRPPRLPRPRPRPNHIPRP | -0.856 |
| RRIRFRPPRLPRPRPRPAWFPRP | 0.122 |
| RRIRQRPPRLPRPRPRPVEMPRP | -0.101 |
| RRIRSRPPRLPRPRPRPQIYPRP | -0.354 |
| RRIRVRPPRLPRPRPRPPYTPRP | -0.268 |
| RRIRRRPPRLPRPRPRPFLIPRP | 1.61 |
| RRIRFRPPRLPRPRPRPRCVPRP | -0.0244 |
| RRIRFRPPRLPRPRPRPFTPPRP | -0.358 |
| RRIRSRPPRLPRPRPRPGQIPRP | -0.227 |
| RRIRTRPPRLPRPRPRPLMGPRP | 0.0521 |
| RRIRLRPPRLPRPRPRPQGCPRP | 0.0879 |
| RRIRHRPPRLPRPRPRPHGIPRP | -0.0284 |
| RRIRPRPPRLPRPRPRPQYPPRP | -0.133 |

| Sequence | shrunken log2 fold change |
| --- | --- |
| RRIRCRPPRLPRPRPRPYLQPRP | -0.144 |
| RRIRDRPPRLPRPRPRPPSSPRP | -0.0759 |
| RRIRERPPRLPRPRPRPCIPPRP | -0.109 |
| RRIRGRPPRLPRPRPRPLHPPRP | 0.697 |
| RRIRERPPRLPRPRPRPNGEPRP | -0.0424 |
| RRIRTRPPRLPRPRPRPTDHPRP | -0.283 |
| RRIRARPPRLPRPRPRPWGWPRP | 0.649 |
| RRIRPRPPRLPRPRPRPRHTPRP | 0.136 |
| RRIRPRPPRLPRPRPRPIDDPRP | 0.00554 |
| RRIRERPPRLPRPRPRPVYYPRP | 0.0224 |
| RRIRTRPPRLPRPRPRPTIFPRP | -0.2 |
| RRIRRRPPRLPRPRPRPLNGPRP | 0.112 |
| RRIRYRPPRLPRPRPRPFEEPRP | -0.0344 |
| RRIRKRPPRLPRPRPRPNLIPRP | -0.494 |
| RRIRGRPPRLPRPRPRPEHMPRP | 0.396 |
| RRIRLRPPRLPRPRPRPQGGPRP | 0.0226 |
| RRIRMRPPRLPRPRPRPPYVPRP | -0.0137 |
| RRIRYRPPRLPRPRPRPTEMPRP | -0.306 |
| RRIRPRPPRLPRPRPRPIWKPRP | 0.0296 |
| RRIRARPPRLPRPRPRPVEIPRP | 0.0505 |
| RRIRMRPPRLPRPRPRPSNFPRP | -0.192 |
| RRIRIRPPRLPRPRPRPVSEPRP | -0.164 |
| RRIRCRPPRLPRPRPRPWPDPRP | 0.0862 |
| RRIRWRPPRLPRPRPRPSAYPRP | -0.549 |
| RRIRMRPPRLPRPRPRPFWIPRP | 0.00154 |

| Sequence | shrunken log2 fold change |
| --- | --- |
| RRIRWRPPRLPRPRPRPDQHPRP | -0.00431 |
| RRIRRRPPRLPRPRPRPSGYPRP | -0.201 |
| RRIRHRPPRLPRPRPRPRPRPRP | 0.707 |
| RRIRIRPPRLPRPRPRPVDEPRP | -0.0203 |
| RRIRERPPRLPRPRPRPFCAPRP | 0.548 |
| RRIRFRPPRLPRPRPRPSYTPRP | -0.771 |
| RRIRHRPPRLPRPRPRPARGPRP | 0.319 |
| RRIRMRPPRLPRPRPRPDEMPRP | 0.0155 |
| RRIRRRPPRLPRPRPRPWICPRP | -0.0987 |
| RRIRHRPPRLPRPRPRPFMNPRP | -0.0862 |
| RRIRHRPPRLPRPRPRPDRGPRP | -0.144 |
| RRIRDRPPRLPRPRPRPLYKPRP | 0.00521 |
| RRIRNRPPRLPRPRPRPMYLPRP | -0.251 |
| RRIRARPPRLPRPRPRPYGGPRP | -0.221 |
| RRIRTRPPRLPRPRPRPYMSPRP | -0.0144 |
| RRIRLRPPRLPRPRPRPIENPRP | 0.0407 |
| RRIRMRPPRLPRPRPRPFPQPRP | 0.103 |
| RRIRDRPPRLPRPRPRPPFQPRP | 0.193 |
| RRIRYRPPRLPRPRPRPCHIPRP | -0.0462 |
| RRIRPRPPRLPRPRPRPRPRPRP | 0.744 |
| RRIRCRPPRLPRPRPRPSGVPRP | -0.311 |
| RRIRTRPPRLPRPRPRPFMQPRP | -0.0497 |
| RRIRYRPPRLPRPRPRPMAQPRP | -0.0848 |
| RRIRQRPPRLPRPRPRPLYWPRP | -0.11 |
| RRIRMRPPRLPRPRPRPQCSPRP | 0.113 |
